From US20240043562A1 (ACADEMISCH ZIEKENHUIS LEIDEN H O D N LUMC, published 2024)

T1: MuSK at the postsynaptic membrane of mouse neuromuscular junctions (levator auris longus muscle) (mouse, UniProt Q61006 22-868)
T1 construct: whole, on cells; Target in tissue immunostaining; also called mouse NMJs; MuSK at the NMJ
T1 sequence (looked up): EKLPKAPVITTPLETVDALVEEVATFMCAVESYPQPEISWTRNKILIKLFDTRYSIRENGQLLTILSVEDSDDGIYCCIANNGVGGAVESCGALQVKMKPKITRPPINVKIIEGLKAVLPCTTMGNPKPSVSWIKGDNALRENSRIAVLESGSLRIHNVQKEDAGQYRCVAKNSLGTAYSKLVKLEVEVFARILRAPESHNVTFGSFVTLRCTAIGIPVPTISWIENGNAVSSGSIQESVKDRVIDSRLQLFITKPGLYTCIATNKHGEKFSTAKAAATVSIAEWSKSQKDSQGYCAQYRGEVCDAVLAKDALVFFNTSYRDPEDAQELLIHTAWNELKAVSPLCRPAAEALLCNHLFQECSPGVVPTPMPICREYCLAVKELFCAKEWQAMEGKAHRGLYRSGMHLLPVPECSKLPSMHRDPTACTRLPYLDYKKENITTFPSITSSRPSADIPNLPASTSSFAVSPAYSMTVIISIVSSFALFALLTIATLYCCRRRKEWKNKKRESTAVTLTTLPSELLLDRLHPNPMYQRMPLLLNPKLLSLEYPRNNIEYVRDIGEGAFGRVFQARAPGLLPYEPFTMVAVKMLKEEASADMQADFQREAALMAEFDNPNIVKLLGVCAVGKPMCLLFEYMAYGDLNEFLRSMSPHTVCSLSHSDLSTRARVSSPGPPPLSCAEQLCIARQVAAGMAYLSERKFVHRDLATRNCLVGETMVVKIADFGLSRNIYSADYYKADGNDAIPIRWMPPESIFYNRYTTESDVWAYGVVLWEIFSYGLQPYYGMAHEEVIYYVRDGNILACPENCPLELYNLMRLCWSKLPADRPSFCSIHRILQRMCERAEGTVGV


Biological target: T1, MuSK at the postsynaptic membrane of …
Assay: immunostaining of whole-mount mouse levator auris longus muscle
Protocol: FIG. 6—anti-MuSK/Anti-HIV-b12 exchanged heterospecific IgG4 antibodies were generated using methods detailed in Labrijn, 2014, Nature Protocols and Genmab, Labrijn, 2013, PNAS, which were adjusted to IgG4. These antibodies were tested for MuSK binding in mouse neuromuscular junction (NMJ) in ex vivo levator auris longus muscle. Equivalent anti-MuSK homospecific antibodies were also tested in parallel. The data confirms that both heterospecific MuSK IgG4 antibodies (13-3B5/HIV IgG4 and 11-3F6/HIV IgG4) and homospecific MuSK IgG4 antibodies (13-3B5 IgG4 and 11-3F6 IgG4) bind to MuSK at the NMJ.
To determine the binding characteristics of the recombinant and medium produced antibodies we performed an epitope mapping ELISA as described previously (Huijbers et al., 2016). Truncated versions of the MuSK proteins were immobilized on maxisorp plates and exposed to either antibodies from the single cell cultures 1:10 or to recombinant antibodies. Recombinant antibodies were also used to immunostain mouse levator auris longus muscle overnight at 4° C. at 1:100. AChRs in synaptic regions were labelled with AlexaFluor488 conjugated alpha-bungarotoxin (Life technologies) and bound recombinant antibodies were detected with AlexaFluor594 conjugated goat anti-human IgG (Life technologies). Muscles were imaged on a Leica SP8 confocal laser-scanning microscope and analyzed using Las X software.

Binder	binding result
recombinant 11-3F6 IgG4 (antibody, V domains shown, Variable regions cloned in an IgG4 backbone and expressed in HEK293-F cells; Bivalent and monospecific; also called homospecific 11-3F6 IgG4) VH: EVQLVESGGGLVKPGGSLRLSCAASGFTFSSYTMDWVRQAPGKGLEWVSSIGSNGDYIYYADSVRGRFTISRDNAKNSLYLQMNSLRPDDTADYYCARGQLAVAGTHFDYWGRGSLVTVSS VL: DIQMTQSPSSLSASVGDRVTISCRASQKVNKYVNWYQQTPGKAPRLLIYAASTLQSGVPSRFSGSGSGANFTLTISGLQPEDFAIYFCQQSYSPLCTFGQGTKLEIK	binds
recombinant 13-3B5 IgG4 (antibody, V domains shown, Variable regions cloned in an IgG4 backbone and expressed in HEK293-F cells; Bivalent and monospecific; also called homospecific 13-3B5 IgG4; 13-365) VH: QVQLVQSGAVVAKPGASVQVSCKTSGYTFTGQYLHWVRQAPGQGLEWIGWINPSSGVTKFAEKFEGRATMTRDTSITTAYIDLRSLRSDDTATYYCATLSLGVYYVGMVAWGQGTLVTVSS VL: SYELTQPPSVSVSPGQTATITCSGDGLAQQHVYWFQQRPGQAPLLIIYKDIERPSGIPERFSGSSSGTTAMLTISGVQAEDEADYYCQSGDRTATSVLFGGGTKMTVL	binds
